Data reported in US7271245B2, “Methods and compositions for inhibition of metastasis” (The Scripps Research Institute, priority 2004, dated 2007).

System: activated integrin αvβ3
Test: Flow cytometry, scFv binding to MDA-MB 435 variants and patient metastatic breast cancer cells
Design: species or system human
Experimental: FIGS. 1A, 1B, 1C. Patient derived scFvs Bc-12 and Bc-15 recognize tumor cell integrin αvβ3 in a cation and activation dependent manner. Flow cytometric analyses in TBS with or without 1 mM Ca^2+, 1 mM Mg^2+, or 0.2 mM Mn^2+ as indicated. Binding of soluble scFv detected after incubation with anti-Flag M2 murine mAb followed by FITC-anti mouse F(ab′)2. (A) scFv binding to human melanoma cells (M21: αvβ3 plus other αv integrins) (M21-LIIb: αIIbβ3, no αv integrins) or lung adenocarcinoma cells (UCLA-P3: αv integrins, no β3 integrin). (B) scFv binding to M21 melanoma cells. (C) scFv binding to variants of MDA-MB 435 human breast cancer cells that lack (β^3−) or express αvβ3 either in a non-activated (β3WT, ParentCo) or activated form (β3D723R, Bone, Lung, and BMS metastatic cancer cells isolated from breast cancer patient blood).
FIGS. 2A, 2B, 2C, 2D. Translation of scFv DNA sequence analyses. (A) Consensus amino acid sequence (SEQ ID NO: 9) of Bc-12 (SEQ ID NO: 7) and Bc-15 (SEQ ID NO: 8) (specific for activated αvβ3) compared to Bc-20 (specific for αv) (SEQ ID NO: 10). (B) scFv binding to BMS human breast cancer cells by flow cytometry, indicating loss of Bc-12 and Bc-15 binding when CDR-H3 RGD is mutated to RGE (Mut-12 and Mut-15). […] (C) cDNA sequences for scFv Bc-12 (SEQ ID NO: 1) and scFv Bc-15 (SEQ ID NO: 3). The cDNA encoding scFv Bc-12 has an ATCC accession number PTA-6303, date of deposit: Nov. 12, 2004. The cDNA encoding scFv Bc-15 has an ATCC accession number PTA-6304, date of deposit: Nov. 12, 2004. (D) cDNA sequences for scFv Mut-12 (SEQ ID NO: 5) and scFv Mut-15 (SEQ ID NO: 6). scFv Mut-12 is the RGE containing mutant version of scFv Bc-12. scFv Mut-15 is the RGE containing mutant version of scFv Bc-15.
Flow cytometry. scFv binding to human tumor cells was analyzed by flow cytometry, initially with cloned scFv phage and then with purified scFv protein. Per sample, 2×10^5 tumor cells were blocked with goat serum and incubated either with scFv phage (2-5×10^10) (1 h at RT) followed by mouse anti-M13 mAb (Serotec) (30 min on ice) and goat FITC-anti mouse (Pierce) (30 min on ice), or with purified scFv (1.25 to 40 μg/ml, routinely 10 to 15 μg/ml) (45 min on ice), followed by mouse anti-FLAG mAb M2 (Sigma) (30 min on ice) and goat FITC-anti mouse. Binding/washing buffer was TBS with or without divalent cations (1 mM Ca^2+, 1 mM Mg^2+, 0.2 mM Mn^2+). Alternatively, tumor cells were washed in 10 ml of plasma (prepared freshly from human blood anticoagulated with 50 nM D-Phe-D-Pro-D-arginyl chloromethyl ketone, PPACK, Felding-Habermann et al., J. Biol. Chem. 271: 5892-5900, 1996), resuspended in plasma and then incubated sequentially, without washing, with purified scFv (45 min on ice), followed by anti-FLAG M2 (30 min on ice) and FITC-anti mouse (30 min on ice). All samples were counter stained with propidium iodide (PI) and analyzed on a Becton-Dickinson FACScan, with live gate set to exclude PI positive cells.
To test this further, the effects of cation combinations on Bc-12 and Bc-15 binding were examined. […] Smith, Methods Cell Biol. 69: 247-259, 2002; Hughes et al., J. Biol. Chem. 271: 6571-6574, 1996. To confirm that scFv Bc-12 and Bc-15 selectively recognize αvβ3 in its activated form, binding of these antibodies to in vitro generated and in vivo selected variants of the MDA-MB 435 breast cancer cell model was tested. […] In contrast, Bc-12 and Bc-15 were able to bind an MDA-MB 435 variant expressing constitutively activated mutant αvβ3D723R, without exogenous stimulation with Mn^2+. […] Importantly, scFvs Bc-12 and Bc-15 recognized in vivo selected MDA-MB 435 variants from bone and lung metastases, as well as metastatic cells isolated from breast cancer patient blood samples (FIG. 1C). These cells express αvβ3 in a constitutively activated form. Felding-Habermann et al., Proc. Natl. Acad. Sci. U.S.A 98: 1853-1858, 2001; Rolli et al., Proc. Natl. Acad. Sci. U.S.A 100: 9482-9487, 2003.

B1: Bc-12: patient derived human scFv antibody against activated αvβ3 with RGD motif in CDR-H3; cDNA ATCC PTA-6303 (protein)
scFv: MAQVQLVQSGAEVKKPGASVKVSCKASGYTFSNYGITWVRQAPGQGLEWMGWINNGNTHYAQKFQGRVTMTTDTSTSTAYMELRSLRSDDTAVYYCARDPRGDDEPYWGQGTLVTVSSGGGGSGGGGSGGGGSEIVLTQSPLSLPVTLGQPASISCRSSQNLVYSDGNTYLSWFQQRPGQSPRRLIYKVSNRDSGVPDRFSGSGSGTDFTLKISRVEAEDIGVYYCMQGTHWPPRTFGQGTKVEIKRGLGGLVDYKDDDDK
With B1 the “binding to MDA-MB 435 variant expressing αvβ3D723R with Mn2+” value (Mn^2+ added) was “further enhanced”, the “binding to MDA-MB 435 variant expressing αvβ3D723R” value (constitutively activated mutant, without Mn^2+) was “able to bind” and the “binding to β3-negative MDA-MB 435 cells” value (β3− variant) was “failed to bind”.
